Target: the molecule itself
Assay: native gel or EMSA; semi-native PAGE (8%), Tris-Gly buffer system without detergent or denaturing agents, 100 V, 18 °C, Coomassie; lyophilized and reconstituted SfC12DO

B1: catechol 1,2-dioxygenase from Stutzerimonas frequens GOM2 (enzyme, UniProt A0ABX6XR78 1-312, looked up)
chain: MTVKISHTNDVQQFFKEASGFNNDAGSSRLKTVINRVLADTARIIEDLEITQDEFWKAVDYINRLGGRHEAGLLVAGLGLEHYLDLLQDAKDEQEGLVGGTPRTIEGPLYVAGAPIAEGEVRMDDDSEEGVATTMFLQGRVTGPDGKPLAGATVDLWHANTKGNYSYFDKSQSEYNLRRRIVTDENGYYRARSIVPSGYGCSPDGPTQEVLDMLGRHGQRPAHIHFFISAPGHRHLTTQINLAGDKYLWDDFAYATRDGLVGDIRFIDDAEAARARGVQGRFAEVDFDFQLQKAPAPQAEQRSKRPRALQQA
notes: catechol 1,2-dioxygenase encoded by the CatA gene of Stutzerimonas frequens GOM2 (Pseudomonas stutzeri GOM2); regions are labelled up to residue 312; Non-heme Fe3+ enzyme; Number of copies depends on the sample: dimer when non-lyophilized; dimer, tetramer, (hexamer), octamer and >20-mer after lyophilization and reconstitution; also called SfC12DO; PsC12DO; source: used non-lyophilized, or …
- stoichiometry N: 6

From PMC12052123, “Investigating the quaternary structure of a homomultimeric catechol 1,2-dioxygenase: An integrative structural biology study” (PLOS One, 2025)
